Test results published in paper PMC6451127.

B1: AtMAPDA (Arabidopsis thaliana; N17A) (protein)
chain: MEWIQSLPKIELHAHLAGSIRDSTLLELARVLGEKGVIVFADVEHVIQKNDRSLVEVFKLFDLIHKLTTDHKTVTRITREVVEDFALENVVYLELRTTPKRSDSIGMSKRSYMEAVIQGLRSVSEVDIDFVTASDSQKLHNAGDGIGRKKIYVRLLLSIDRRETTESAMETVKLALEMRDVGVVGIDLSGNPLVGEWSTFLPALQYAKDNDLHITLHCGEVPNPKEIQAMLDFKPHRIGHACFFKDEDWTKLKSFRIPVEICLTSNIVTKSISSIDIHHFADLYNAKHPLILCTDDFGVFSTSLSNEYALAVRSLGLSKSETFALARAAIDATFAEDEVKQQLRFIFDSASPEHV
B2: AtMAPDA (Arabidopsis thaliana; H65A) (protein)
chain: MEWIQSLPKIELHAHLNGSIRDSTLLELARVLGEKGVIVFADVEHVIQKNDRSLVEVFKLFDLIAKLTTDHKTVTRITREVVEDFALENVVYLELRTTPKRSDSIGMSKRSYMEAVIQGLRSVSEVDIDFVTASDSQKLHNAGDGIGRKKIYVRLLLSIDRRETTESAMETVKLALEMRDVGVVGIDLSGNPLVGEWSTFLPALQYAKDNDLHITLHCGEVPNPKEIQAMLDFKPHRIGHACFFKDEDWTKLKSFRIPVEICLTSNIVTKSISSIDIHHFADLYNAKHPLILCTDDFGVFSTSLSNEYALAVRSLGLSKSETFALARAAIDATFAEDEVKQQLRFIFDSASPEHV
B3: AtMAPDA (Arabidopsis thaliana; T97A) (protein)
chain: MEWIQSLPKIELHAHLNGSIRDSTLLELARVLGEKGVIVFADVEHVIQKNDRSLVEVFKLFDLIHKLTTDHKTVTRITREVVEDFALENVVYLELRATPKRSDSIGMSKRSYMEAVIQGLRSVSEVDIDFVTASDSQKLHNAGDGIGRKKIYVRLLLSIDRRETTESAMETVKLALEMRDVGVVGIDLSGNPLVGEWSTFLPALQYAKDNDLHITLHCGEVPNPKEIQAMLDFKPHRIGHACFFKDEDWTKLKSFRIPVEICLTSNIVTKSISSIDIHHFADLYNAKHPLILCTDDFGVFSTSLSNEYALAVRSLGLSKSETFALARAAIDATFAEDEVKQQLRFIFDSASPEHV
B4: AtMAPDA (Arabidopsis thaliana; T98A) (protein)
chain: MEWIQSLPKIELHAHLNGSIRDSTLLELARVLGEKGVIVFADVEHVIQKNDRSLVEVFKLFDLIHKLTTDHKTVTRITREVVEDFALENVVYLELRTAPKRSDSIGMSKRSYMEAVIQGLRSVSEVDIDFVTASDSQKLHNAGDGIGRKKIYVRLLLSIDRRETTESAMETVKLALEMRDVGVVGIDLSGNPLVGEWSTFLPALQYAKDNDLHITLHCGEVPNPKEIQAMLDFKPHRIGHACFFKDEDWTKLKSFRIPVEICLTSNIVTKSISSIDIHHFADLYNAKHPLILCTDDFGVFSTSLSNEYALAVRSLGLSKSETFALARAAIDATFAEDEVKQQLRFIFDSASPEHV
B5: AtMAPDA (Arabidopsis thaliana; K100A) (protein)
chain: MEWIQSLPKIELHAHLNGSIRDSTLLELARVLGEKGVIVFADVEHVIQKNDRSLVEVFKLFDLIHKLTTDHKTVTRITREVVEDFALENVVYLELRTTPARSDSIGMSKRSYMEAVIQGLRSVSEVDIDFVTASDSQKLHNAGDGIGRKKIYVRLLLSIDRRETTESAMETVKLALEMRDVGVVGIDLSGNPLVGEWSTFLPALQYAKDNDLHITLHCGEVPNPKEIQAMLDFKPHRIGHACFFKDEDWTKLKSFRIPVEICLTSNIVTKSISSIDIHHFADLYNAKHPLILCTDDFGVFSTSLSNEYALAVRSLGLSKSETFALARAAIDATFAEDEVKQQLRFIFDSASPEHV
B6: AtMAPDA (Arabidopsis thaliana) (protein)
chain: MEWIQSLPKIELHAHLNGSIRDSTLLELARVLGEKGVIVFADVEHVIQKNDRSLVEVFKLFDLIHKLTTDHKTVTRITREVVEDFALENVVYLELRTTPKRSDSIGMSKRSYMEAVIQGLRSVSEVDIDFVTASDSQKLHNAGDGIGRKKIYVRLLLSIDRRETTESAMETVKLALEMRDVGVVGIDLSGNPLVGEWSTFLPALQYAKDNDLHITLHCGEVPNPKEIQAMLDFKPHRIGHACFFKDEDWTKLKSFRIPVEICLTSNIVTKSISSIDIHHFADLYNAKHPLILCTDDFGVFSTSLSNEYALAVRSLGLSKSETFALARAAIDATFAEDEVKQQLRFIFDSASPEHV

These proteins were tested on CNc1ncnc2c1ncn2[C@@H]1O[C@H](COP(=O)(O)O)[C@@H](O)[C@H]1O (assay: purified protein). Conditions: 20 mM potassium phosphate pH 7.2, 25 °C.
Assay type: biochemical, Arabidopsis thaliana

B1 and B2 are within 1.5-fold of each other in Km: 7.12 µM for the first, 5.51 µM for the second.

Compared with B3, B4 is 2-fold lower in Km: 8.94 µM for the first, 4.52 µM for the second.

Protein B5 has a Km of 6.89 µM.

Same assay, conditions: 20 mM potassium phosphate pH 7.2, 25 °C, 250 nM enzyme

Protein B6 has a Km of 4.14 µM.
